Measured values from the supplement of paper PMC9170038.

Tested on: MS2 coat protein
Test: apparent KD of MS2 coat protein; designed switch direction (-1 OFF switch, 1 ON switch): 1; higher = weaker reporter binding
Method in brief: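 Designed RNA switches with common flanks were made on Illumina chips by stalled E. coli RNA polymerase. Titration with SNAP-549-labelled MS2 coat protein doubled from 0.7 or 1.5 nM up to 3 µM. Apparent KD is each design's median over clusters after curve-fitting normalised fluorescence.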

[1] = input ligand: microRNA oligo, concentration not stated
[2] = Eterna round: R95, input ligand: FMN 200 uM
[3] = Eterna round: R95, input ligand: microRNA oligo, concentration not stated
[4] = Eterna round: R95, input ligand: none

Sequence	apparent KD of MS2 coat protein (input ligand: FMN 200 uM) [nM]	apparent KD of MS2 coat protein [1] [nM]	apparent KD of MS2 coat protein (input ligand: none) [nM]	apparent KD of MS2 coat protein [2] [nM]	apparent KD of MS2 coat protein [3] [nM]	apparent KD of MS2 coat protein [4] [nM]
GAGUGGUGAAAAGGAUAUGCAUUGUUAUUCACUGUAGAAGGUUUUAACAUGAGGAUCACCCAUGUAGGACUAUUCCUGUGUUUU [Parity 60 - Jieux - Same State NG 1] (Eterna round: R96, puzzle: Same State NG 1)	17.6	14.8	23.2			
GAGUUUGAACUACAGGAUAUAUAGCAGAUGACAUGAGGAUCACCCAUGUAAGAGAAAGGAGGGAAAUAGAAGGGUAUGGGAGGUG [JR_SS2_Sub035] (puzzle: Same State 2)				33.7	20.4	24.3
GAUAAACAUGAGGAUCACCCAUGUAAUAAUAUGGGAGGAUAUCAGAAUGUAUGUAUGUAAUGAGAAGGCCUAAUAU [Mat - Same State 1 - Mod of Eli - D71] (puzzle: Same State 1)				61.8	545	491
GAUAUACAUGAGGAUCACCCAUGUCAUAUGACAUGAGGAUAUGUACAGACUUCGGUCUGUACAGAAGGCAUGUGUC [SS1 - 1011 Omei Mod 1] (puzzle: Same State 1)				60.5	338	530
GAUCGUUUGAUAGGAUAUCGCUAUACAUGAGGAUCACCCAUGUUUACCACGCUGGUUUUUCAUACCGAGAAGGAUUCUGAUGAG [salish99_SSNG02_r04_008] (Eterna round: R96, puzzle: Same State NG 2)	64.8	49.7	56.1			
GCACAUGAGGAUCACCCAUGUGCGCUUGGUUGUCCAAGCGCACAGGAUAUACCUCCAAAUGGGAGGUAGAAGGGUGAAAAGAAG [Leones] (Eterna round: R96, puzzle: Same State NG 3)	15.1	11.1	11			
GCAGAACAUGAGGAUCACCCAUGUCUCUAAAGUCGAGGAUAUGGGCAGGUUAUAUCCGAACCAGAAGGCGAUCUGC [SS1 Teenbexe 13] (puzzle: Same State 1)					108	
GCAGGACAUGAGGAUCACCCAUGUUCCAAAUAUUGAGGAUAUGGAUACGGUAUAUCCGAACCAGAAGGCAACCUGC [SS1 Teenbexe 21] (puzzle: Same State 1)				25.3	22.1	23.3
GCAUCACAUGAGGAUCACCCAUGUCUUCGGAGUCGAGGAUAUGGUCACUGUAAACAGUGGCCAGAAGGCGAGGUGC [SS1 - Son of Teenbexe v4] (puzzle: Same State 1)					53.4	
GCCAACUCAUGAGGAUAUGGCACCUUAAUGGUGCCAGAAGGCAUGUCUAUUGACAUGAGGAUCACCCAUGUAUUUUUGUUGGCA [Fiskers NG1ss - 26] (Eterna round: R96, puzzle: Same State NG 1)	120	750	1210			
GCCAUCGCAUGAGGAUAUGGCACCGAAACGGUGCCAGAAGGCAUGUCGUAAGACAUGAGGAUCACCCAUGUAGUUAAGAUGGCA [Mat - Same State NG 1 - JL mod - D91] (Eterna round: R96, puzzle: Same State NG 1)	215	229	907			
GCCCGUAGCCACAUGAGGAUCACCCAUGUGCAGUUGUGAUCCGAGGAUAUUGCUAUUUGAGAUAGUAAGAAGGUGGACCGCGGU [Eternabot solution 31] (Eterna round: R96, puzzle: Same State NG 3)	109	84.4	143			
GCCGCAAGGGCAGGAUAUGGGUCCAGAACGCAAAUGCGCUCUGGUACAUGAGGAUCACCCAUGUCCCAGAAGGGCCCAAGCGGC [Isusara] (Eterna round: R96, puzzle: Same State NG 2)	16.5	96.5	106			
GCCGCAAGGGCAGGAUAUGGGUCCAGAGCGCAAAUGCGCUCUGGUACAUGAGGAUCACCCAUGUCCCAGAAGGGCCCAAGCGAC [Xeatvearbe] (Eterna round: R96, puzzle: Same State NG 2)	14.6	88.6	130			
GCCGCAGGCUAAGGAUAUUGCGUGAUCACAUGAGGAUCACCCAUGUCAAUAUCGCUACGGAAGAGCAAGAAGGUAGCGCCGCAG [Eternabot solution 10] (Eterna round: R96, puzzle: Same State NG 2)	188	182	127			
GCCGCGAAGCGAGGAUAUACUGUCCGAGAGCCGCAAACAUGAGGAUCACCCAUGUAGGUGAGACCGUAGAAGGCGUAAGCGCAA [Eternabot solution 19] (Eterna round: R96, puzzle: Same State NG 2)	46	235	331			

Sequence	apparent KD of MS2 coat protein (input ligand: FMN 200 uM) [nM]	apparent KD of MS2 coat protein [1] [nM]	apparent KD of MS2 coat protein (input ligand: none) [nM]	apparent KD of MS2 coat protein [2] [nM]	apparent KD of MS2 coat protein [3] [nM]	apparent KD of MS2 coat protein [4] [nM]
GCCGCGUUUCGCGCCUACAUGAGGAUCACCCAUGUAUGUAGGCAGGAUAUCGUUUGCUUUGCAAACGAGAAGGGCUGUAGUGGC [salish99_SSNG3_R04_008] (Eterna round: R96, puzzle: Same State NG 3)	70.4	165	188			
GCCGCGUUUCGCGCCUACAUGAGGAUCACCCAUGUAUGUAGGCAGGAUAUCGUUUGCUUUGCAAACGAGAAGGGCUGUUGUGGC [salish99_SSNG3_R04_009] (Eterna round: R96, puzzle: Same State NG 3)	79.5	217	227			
GCCGGCUGGUGAGGAUAUGGCACCUUAUUGGUGCCAGAAGGCAUGUCAAUUGACAUGAGGAUCACCCAUGUAUUAUCGUUGGCG [salish99_SSNG1_r04_607] (Eterna round: R96, puzzle: Same State NG 1)	725	325	370			
GCCUCUGCUCCACAGGAUAUGCGCUGUUGUACAUGAGGAUCACCCAUGUGCAGCCGACCAGAGCUGCAGAAGGGUGAGAGAGAGU [Atisanesxe] (puzzle: Same State 2)				28.6	253	243
GCGAAGAGGUAAGGAUAUUCAUGGCGUAGACAUGAGGAUCACCCAUGUAGGAGACGAAUUAGAAGGGAGAAGGUACCAGGACGC [AK SSNG2-V2-17] (Eterna round: R96, puzzle: Same State NG 2)	60.9	101	187			
GCGACGGCGAAAGGAUAUCAAAAUCAACAGUGUUGAGAAGGUUCUCCGAGGGUCGCACAUGAGGAUCACCCAUGUCGCGAAUCU [Eternabot solution 35] (Eterna round: R96, puzzle: Same State NG 1)		9.02				
GCGAGCGUACUUGCAACAUGAGGAUCACCCAUGUUAACUGGACAGGAUAUGGUACCGUUUCGGUACCAGAAGGGUUUUACAUGU [JL SSNG3 3.65] (Eterna round: R96, puzzle: Same State NG 3)	35.1	29.1	35.6			
GCGAGCGUACUUGCAGACAUGAGGAUCACCCAUGUAACUGGACAGGAUAUGGUACCGUUUCGGUACCAGAAGGGUUCACUCAUG [JL SSNG3 3.58] (Eterna round: R96, puzzle: Same State NG 3)	388	119	176			
GCGAGCGUACUUGCUACAUGAGGAUCACCCAUGUCUAUUGGACAGGAUAUGGUACCGUUUCGGUACCAGAAGGGUUCAUCAUGU [JL SSNG3 3.72] (Eterna round: R96, puzzle: Same State NG 3)	400	46.2	34.6			
GCGAGCGUACUUGCUACAUGAGGAUCACCCAUGUUUCAUGGACAGGAUAUGGUACCGUUUCGGUACCAGAAGGGUUCACAUGUA [JL SSNG3 3.80] (Eterna round: R96, puzzle: Same State NG 3)	155	98.8	315			
GCGAUAUGAUGUUACAUGAGGAUCACCCAUGUAGCGACAGCUAAGGAUAUUGGAAAGGGAGGAGACGAGAAGGUAGGGUCACGC [AK SSNG3-V2-24] (Eterna round: R96, puzzle: Same State NG 3)	22.9	15.8	19.7			
GCGAUAUGAUGUUACAUGAGGAUCACCCAUGUAGCGAUAGCUAAGGAUAUUGGAAAGGGAGGAGACGAGAAGGUAGGAUCACGC [AK SSNG3-V2-23.1] (Eterna round: R96, puzzle: Same State NG 3)	44.9	15.7	36.1			
GCGCACGAUCACAGUAACAUGAGGAUCACCCAUGUGUUACCGGAGGAUAUGCAAGCCCAUGCAGCGCAGAAGGCCGGGAACGUA [Eternabot solution 24] (Eterna round: R96, puzzle: Same State NG 3)	151	131	147			
GCGCUCCAAGGAGCUGCGACAUGAGGAUCACCCAUGUAAUCACAGGAUAUGCGAUUCCGAAUUUUGCAGAAGGGUGAUAAGAAC [Asorila] (Eterna round: R96, puzzle: Same State NG 3)	482	491	241			
GCGGAAACUCACAUGAGGAUCACCCAUGUUCCGGAAACGGCACAGGAUAUCUGUCCGAAAAGGUCAGAGAAGGGUGUAAUCCGC [Fiskers NG3ss - 90] (Eterna round: R96, puzzle: Same State NG 3)	572	101	79.6			
